Biological target: T1, human CEACAM5 protein (SinoBiological) (human, UniProt P06731 35-685)
T1 construct: also called human CEA protein; carcinoembryonic antigen
T1 sequence: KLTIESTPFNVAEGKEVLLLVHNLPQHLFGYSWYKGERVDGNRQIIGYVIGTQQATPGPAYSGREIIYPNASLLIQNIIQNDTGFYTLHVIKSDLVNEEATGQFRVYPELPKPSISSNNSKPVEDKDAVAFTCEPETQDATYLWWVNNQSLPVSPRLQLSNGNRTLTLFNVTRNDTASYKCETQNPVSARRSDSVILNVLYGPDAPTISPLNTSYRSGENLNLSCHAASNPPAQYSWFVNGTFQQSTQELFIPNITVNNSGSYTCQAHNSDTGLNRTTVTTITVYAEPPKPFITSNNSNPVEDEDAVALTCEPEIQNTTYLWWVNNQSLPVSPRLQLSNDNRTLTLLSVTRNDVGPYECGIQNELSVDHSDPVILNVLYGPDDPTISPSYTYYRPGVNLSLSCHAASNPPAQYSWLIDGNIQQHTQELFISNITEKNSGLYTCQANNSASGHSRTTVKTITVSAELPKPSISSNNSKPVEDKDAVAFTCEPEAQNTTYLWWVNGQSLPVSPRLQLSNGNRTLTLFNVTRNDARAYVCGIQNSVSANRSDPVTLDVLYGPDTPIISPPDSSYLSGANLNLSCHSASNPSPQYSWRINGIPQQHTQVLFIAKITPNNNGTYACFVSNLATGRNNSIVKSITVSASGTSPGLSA
Test: biological agglutination test

B1: C43 anti-CEA nanobody, surface-displayed on E. coli through the pNV intimin display system (VHH)
VHH: EVQLVESGGGLVQAGGSLTLSCTSSTLTFTPYRMGWYRQTPGKQRDLVADISPGDGSTKNYAGFAQGRFTISRDNIKNTVYLQMNDLKPEDTAVYYCNTYVAFVGRARTWGQGTQVTVSS
notes: domain: β-intimin domain; also called pNVC43; pNVC43_sfGFP
B1: binds.

— patent publication US20220259605A1 (OXFORD UNIVERSITY INNOVATION, published 2022)
